From article doi:10.1101/2025.11.17.688798, “Engineering directional phosphoryl flow enables programmable signaling dynamics in bacteria” (bioRxiv, 2025)

B1: Spo0B (enzyme, B. subtilis, UniProt P06535 1-192, looked up)
chain: MKDVSKNQEENISDTALTNELIHLLGHSRHDWMNKLQLIKGNLSLQKYDRVFEMIEEMVIDAKHESKLSNLKTPHLAFDFLTFNWKTHYMTLEYEVLGEIKDLSAYDQKLAKLMRKLFHLFDQAVSRESENHLTVSLQTDHPDRQLILYLDFHGAFADPSAFDDIRQNGYEDVDIMRFEITSHECLIEIGLD
notes: Spo0B, sporulation phosphotransferase of B. subtilis; Two protomers of Spo0B stand in the complex; the Spo0B dimer of PDB 1IXM was the search probe; also called phosphotransferase Spo0B; transferase; source: E. coli BL21 (DE3) pLysS, purified (HisTrap IMAC, TEV cleavage, reverse IMAC, Superdex 75 SEC); not shown: His6, N-terminal, cleaved

Key:
Spo0B = biological target: B1; experiment: crystal structure; purified Spo0B and Spo0A-REC mixed at 1:1.1 equivalents with 10 mM MgCl2 in 20 mM Tris-HCl pH 8.0, 0.1 M NaCl; sitting-drop vapour diffusion at 293 K; two crystal forms, 2.1 and 3.5 Å; conditions: both partners purified
[1] = biological target: the molecule itself; experiment: as above

Row | Binder | stoichiometry N (Spo0B) | binding result [1]
1 | Spo0A-REC (domain or fragment, B. subtilis, UniProt P06534 1-123, looked up, PDB 1QMP (Spo0A receiver domain) was the search probe; also called Spo0A receiver domain; A3; source: E. coli BL21 (DE3) pLysS, purified (HisTrap IMAC, TEV cleavage, reverse IMAC, Superdex 75 SEC); not shown: His6, N-terminal, cleaved) MEKIKVCVADDNRELVSLLSEYIEGQEDMEVIGVAYNGQECLSLFKEKDPDVLVLDIIMPHLDGLAVLERLRESDLKKQPNVIMLTAFGQEDVTKKAVDLGASYFILKPFDMENLVGHIRQVS | 1 RR per phosphotransferase chain (printed as 2:2) | –
2 | B1 | – | binds
